{
  "source": "patent US20140335568",
  "key": {"[1]": {"system": "scFv clone C1 (anti-dsDNA d(AT)4 recombinant antibody) (synthetic (Tomlinson I/J human scFv phage library))", "assay": "ELONA", "details": "ELISA"}, "[2]": {"system": "scFv clone C1 (anti-dsDNA d(AT)4 recombinant antibody) (synthetic (Tomlinson I/J human scFv phage library))", "assay": "competition", "details": "competition ELISA against immobilized 35 bp dsDNA, 50% reduction, 1.25x10^7 M-1; discussion gives about 50-80 nM"}},
  "data": [
    {"sequence": "AAAAGACTCACTGTTTGTCTGTCGTTCTAGGATATATAT / ATATATATCCTAGAACGACAGACAAACAGTGAGTC [35 bp dsDNA epitope (ssDNA:ssDNA')]", "values": [
      {"measurement": "IC50", "setting": "[1]; varying immobilized dsDNA at fixed scFv (3 uM)", "result": 0.031, "unit": "µM"},
      {"measurement": "IC50", "setting": "[1]; varying scFv with 25 pmol immobilized dsDNA, single site isotherm, 5xSSCT immobilization, RT", "result": 0.238, "unit": "µM"}
    ]},
    {"sequence": "ATATATATCCTAGAACGACAGACAAACAGTGAGTCCGCATTGTTACAT (double strand) [Icomp (Icomp:Icomp')]", "values": [
      {"measurement": "Kd", "setting": "[2]", "result": 0.08, "unit": "µM"}
    ]}
  ]
}
